This experiment addresses T1, human DCN1 (residues 58–259), N-terminal His6 tag (human, UniProt Q96GG9 58-259).
T1 construct: DCN1 (defective in cullin neddylation 1), human, residues 58-259, cloned into pDEST17; residues 60-251 are visible in PDB 5UFI; also called defective in cullin neddylation 1; source: Rosetta2 cells, purified (Ni-NTA, Superdex 75); not shown: His6, N-terminal, kept
Description: fluorescence polarisation; competitive: peptide added to pre-incubated DCN1 (50 nM) and FAM-labelled small-molecule probe 46 (5 nM); 100 mM phosphate buffer pH 6.5, 0.02% Tween-20, 2% DMSO; room temperature, 30 min; Ki calculated from IC50. To be noted: both partners purified.

The values that follow come from article PMC5658359, “A potent small-molecule inhibitor of the DCN1-UBC12 interaction that selectively blocks cullin 3 neddylation” (Nature Communications, 2017).

Primed or numbered codes have the meaning given here. Where no end group is shown, it is not given here. [ ]: non-standard residue; d: D form. Ala(benzothiazol-2-yl)′ = not defined here; Phe(2-Cl) = N[C@@H](Cc1ccccc1Cl)C(=O)O; 1Nal = N[C@@H](Cc1cccc2ccccc12)C(=O)O; 2Nal = N[C@@H](Cc1ccc2ccccc2c1)C(=O)O; hPhe = N[C@@H](CCc1ccccc1)C(=O)O

T1 sequence (Q96GG9 58-259): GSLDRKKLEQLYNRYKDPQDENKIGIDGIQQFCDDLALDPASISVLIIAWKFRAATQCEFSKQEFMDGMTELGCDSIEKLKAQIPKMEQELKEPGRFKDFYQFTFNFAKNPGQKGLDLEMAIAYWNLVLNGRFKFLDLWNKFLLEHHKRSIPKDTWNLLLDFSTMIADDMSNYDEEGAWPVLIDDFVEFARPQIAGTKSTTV

B1: compound 24 (11 with the phenyl replaced by benzothiazol-2-yl) (peptide)
chain: [Ala(benzothiazol-2-yl)′]IKL
Usually Ki stands for the dissociation constant of the complex between target and ligand, obtained from inhibition or displacement. For the molecule B1, the inhibitory constant (Ki) was 150 nM.

B2: compound 22 (11 with the phenyl replaced by naphthalen-1-yl) (peptide)
chain: [1Nal]IKL
As to B2, the Ki is 354000 nM.

B3: compound 27 (26 with the 6-Cl replaced by an isopropyl group) (peptide)
chain: [Ala(6-isopropyl-benzothiazol-2-yl)]IKL
Turning to B3, the inhibition constant (Ki) was 5 nM.

B4: UBC12 seven-residue peptide (6) (peptide, UniProt P61081 1-7, looked up)
peptide: MIKLFSL
notes: UBC12, N-terminal 7 residues (Met1 to Leu7; Lys8 removed from 5); Terminal groups surmised Ac-...-NH2; source: synthetic peptide
Regarding B4, the “fold loss in binding affinity (against 5)” value was 3 fold.

B5: UBC12 peptide 5 (peptide, UniProt P61081 1-8, looked up)
peptide: MIKLFSLK
notes: UBC12, N-terminal 8 residues (Met1 to Lys8); Terminal groups surmised Ac-...-NH2; source: synthetic peptide
For B5, the binding result is “binds”.

B6: UBC12 peptide 8 (peptide, UniProt P61081 1-5, looked up)
peptide: MIKLF
notes: UBC12, N-terminal 5 residues (Met1 to Phe5; Ser6 deleted from 7); Terminal groups surmised Ac-...-NH2; source: synthetic peptide
Turning to B6, the binding result is “binds”.

B7: compound 13 (11 with Cl at the ortho position of the phenyl ring) (peptide)
chain: [Phe(2-Cl)]IKL
In the case of B7, the “fold decrease in binding affinity (against 11)” value was 3 fold.

B8: compound 26 (24 with 6-Cl on the benzothiazol-2-yl) (peptide)
chain: [Ala(6-Cl-benzothiazol-2-yl)]IKL
For B8, the “fold more potent than 24” value is 4 fold.

B9: compound 12 (tetrapeptide 9 with Met1 replaced by homophenylalanine) (peptide)
chain: [hPhe]IKL
For B9, the “fold decrease in binding affinity (reference not named: 9 or 11)” value was 6 fold.

B10: UBC12 peptide 4 (peptide, UniProt P61081 1-9, looked up)
peptide: MIKLFSLKQ
notes: Terminal groups surmised Ac-...-NH2; source: synthetic peptide
Turning to B10, the binding result was “binds”.

B11: UBC12 peptide 3 (peptide, UniProt P61081 1-10, looked up)
peptide: MIKLFSLKQQ
notes: as for B10
For the molecule B11, the binding result is “binds”.

B12: compound 25 (24 with 5-Cl on the benzothiazol-2-yl) (peptide)
chain: [Ala(5-Cl-benzothiazol-2-yl)]IKL
Regarding B12, the “fold less potent than 24” value was 17 fold.

B13: compound 23 (11 with the phenyl replaced by naphthalen-2-yl) (peptide)
chain: [2Nal]IKL
B13: the “fold more potent than 11” value is 11 fold.

B14: UBC12 peptide 7 (peptide, UniProt P61081 1-6, looked up)
peptide: MIKLFS
notes: UBC12, N-terminal 6 residues (Met1 to Ser6; Leu7 removed from 6); Terminal groups surmised Ac-...-NH2; source: synthetic peptide
With B14, the “fold loss in binding affinity (against 6)” value was 3 fold.

B15: UBC12 peptide 2 (peptide 1 without Lys12) (peptide, UniProt P61081 1-11, looked up)
peptide: MIKLFSLKQQK
notes: UBC12, N-terminal 11 residues (truncation of Lys12 from the 12-residue peptide); Terminal groups surmised Ac-...-NH2; source: synthetic peptide
For B15, the binding result is listed as “binds”.
